Data on 4 molecules can be found in PMC5508000, “Identification of the Components Involved in Cyclic Di-AMP Signaling in Mycoplasma pneumoniae” (Frontiers in Microbiology, 2017).

The test system of data set [1] is O=[N+]([O-])c1ccc(OP(=O)(O)Oc2ccc([N+](=O)[O-])cc2)cc1. As to the kind of experiment: OD410 nitrophenol release, microplate. Format: biochemical, Mycoplasmoides pneumoniae. The note with it: MnCl2 0.1 mM, 100 mM Tris-HCl pH 8.3, 10 mM NaCl, 37 °C. An excerpt:
OD410 nitrophenol release, microplate on MPN549 (PdeM)

A further data set addresses T1, KtrC (MPN461) (Mycoplasmoides pneumoniae, UniProt P75322).
T1 construct: gene MPN_461; native protein from M. pneumoniae cell extract, identified by mass spectrometry
T1 sequence (P75322 1-231): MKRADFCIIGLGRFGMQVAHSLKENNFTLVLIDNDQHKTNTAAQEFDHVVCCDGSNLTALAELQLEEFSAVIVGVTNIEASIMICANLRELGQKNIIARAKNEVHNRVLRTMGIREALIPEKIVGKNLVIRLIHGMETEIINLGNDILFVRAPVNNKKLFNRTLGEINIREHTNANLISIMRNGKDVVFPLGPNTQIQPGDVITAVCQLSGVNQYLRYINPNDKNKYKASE
As to the kind of experiment: pull-down on c-di-AMP agarose, elution with free c-di-AMP, MS identification. Type of data set: binding. As to conditions: labelled compound: immobilised 2'-AHC-c-di-AMP agarose, eluted with 1 mM free c-di-AMP; cell extract; pH 7.5, 4 °C.

Substrate in data set [2]: O=[N+]([O-])c1ccc(OP(=O)(O)Oc2ccc([N+](=O)[O-])cc2)cc1
As to the kind of experiment: OD410 nitrophenol release, microplate. Format: biochemical, Mycoplasmoides pneumoniae. As to conditions: MnCl2 0.1 mM, 100 mM Tris-HCl pH 8.3, 10 mM NaCl, 37 °C. An excerpt:
OD410 nitrophenol release, microplate on MPN140 (NrnA)
The source holds these as a separate data set.

Substrate in data set [3]: O=[N+]([O-])c1ccc(OP(=O)(O)Oc2ccc([N+](=O)[O-])cc2)cc1
As to the kind of experiment: OD410 nitrophenol release, microplate. Format: biochemical, Bacillus subtilis. The note with it: MnCl2 0.1 mM, 100 mM Tris-HCl pH 8.3, 10 mM NaCl, 37 °C. The text has this: OD410 nitrophenol release, microplate on GdpP

For “MPN549 (PdeM) (Mycoplasmoides pneumoniae M129)”, the Km in data set [1] is 600 µM.

Take `Nc1ncnc2c1ncn2[C@@H]1O[C@@H]2COP(=O)(O)O[C@H]3[C@@H](O)[C@H](n4cnc5c(N)ncnc54)O[C@@H]3COP(=O)(O)O[C@H]2[C@H]1O` [c-di-AMP]: at KtrC (MPN461), the “pull-down on c-di-AMP agarose, elution with free c-di-AMP, MS identification” value was “c-di-AMP-binding proteins were eluted with free c-di-AMP”.

B1: MPN140 (NrnA) (Mycoplasmoides pneumoniae M129) (protein)
chain: MNSQVHRKGSIAEAVSAIQAHDKIVIFHHIRPDGDCLGAQHGLARLIQTNFPHKQVFCVGDPKHNFPWLEMVFTPKEQITPELMQQALAVIVDANYKERIECRDLLDQNQFKAVLRIDHHPNEDDLNTTHNFVDASYIAAAEQVVDLAVQAKWKLSPPAATALYLGIYTDSNRFLYSNTSWRTLYLGSMLYRAQANIAKIHDELNHTSLKDIQFKQYVFKNFQTFQNVIYFVADKKFQKKLKVTPLECARVNILANIEQFHIWLFFIEEGKNHYRVEFRSNGINVREVALKYGGGGHIQASGAVLKSKRDIIRVVQDCQKQIAV
On to B1, for which, in data set [2], the Km stood at 1600 µM and the kcat was 3.67e-06 s⁻¹.

B2: GdpP (Bacillus subtilis subsp. subtilis str. 168) (protein)
chain: PIGIMLFNDQYYIEWANPFLSSCFNESTLVGRSLYDTCESVVPLIKQEVESETVTLNDRKFRVVIKRDERLLYFFDVTEQIQIEKLYENERTVLAYIFLDNYDDVTQGLDDQTRSTMNSQVTSLLNAWAQEYGIFLKRTSSERFIAVLNEHILTELENSKFSILDEVREKTSFDGVALTLSVGVGASVSSLKELGDLAQSSLDLALGRGGDQVAIKLPNGKVKFYGGKTNPMEKRTRVRARVISHALKEIVTESSNVIIMGHKFPDMDSIGAAIGILKVAQANNKDGFIVIDPNQIGSSVQRLIGEIKKYEELWSRFITPEEAMEISNDDTLLVIVDTHKPSLVMEERLVNKIEHIVVIDHHRRGEEFIRDPLLVYMEPYASSTAELVTELLEYQPKRLKINMIEATALLAGIIVDTKSFSLRTGSRTFDAASYLRAKGADTVLVQKFLKETVDSYIKRAKLIQHTVLYKDNIAIASLPENEEEYFDQVLIAQAADSLLSMSEVEASFAVARRDEQTVCISARSLGEVNVQIIMEALEGGGHLTNAATQLSGISVSEALERLKHAIDEYFEGGVQR
notes: cytoplasmic portion, residues 84-659, C-terminal Strep-tag, expressed in E. coli BL21(DE3), plasmid pGP2720
For the molecule B2, in data set [3], the Km came to 1450 µM.

One may read the Km as the substrate concentration at which the rate is half of its maximum. The term kcat denotes the number of substrate molecules converted per active site and unit of time at saturation.
